In experiment [1] the target is Human PSGL-1 (P-Selectin Glycoprotein Ligand 1) on primary human T cells / PBMC lymphocytes (human) (UniProt Q14242). As to the kind of experiment: flow cytometry; inhibition of VISTA dextramer binding to activated human CD4+ T cells, pH 6.0. On the technique in general: A flow cytometer gives signals particle by particle.
Experiment [2] deals with T1, fluorescently-conjugated human VISTA dextramer (a streptavidin dextramer loaded with monobiotinylated … (human, UniProt Q9H7M9 33-194, monobiotinylated (avi-tagged in Example 6); loaded on a fluorescently-conjugated streptavidin dextramer).
T1 construct: Multimeric reagent: many biotinylated VISTA molecules on a streptavidin dextramer; also called VISTA dextramers; dextramer loaded with recombinant human avi-tagged VISTA
T1 sequence (looked up): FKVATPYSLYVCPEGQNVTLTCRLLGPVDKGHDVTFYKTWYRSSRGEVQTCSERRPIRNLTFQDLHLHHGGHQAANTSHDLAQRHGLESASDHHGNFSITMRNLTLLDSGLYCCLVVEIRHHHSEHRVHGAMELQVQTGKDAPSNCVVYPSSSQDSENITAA
The description is as above. The protocol: The ability of soluble PSGL-1 to disrupt VISTA dextramer binding to T cells was assessed by incubating activated T cells with fluorescently-conjugated VISTA dextramers (a streptavidin dextramer loaded with a sub-optimal molar ratio of monobiotinylated recombinant human VISTA molecules) in Hanks's Balanced Salt Solution at pH 6.0 and in the presence of titrated concentrations of a control (i.e., non-VISTA or PSGL-1 specific) antibody (dots), recombinant human PSGL-1-Fc fusion protein (triangles), or recombinant human P-selectin (R&D Systems, diamonds). The recombinant human PSGL-1 Fc fusion molecule was obtained from R&D Systems Catalog No. 3345-PS, and comprises the PSGL-1 ECD sequence shown in SEQ ID NO: 18, comprising positions 42-295 of a human PSGL-1 sequence of accession number AA50061 coupled at its C-terminal to an IEGRMD linker sequence (SEQ ID NO: 19) followed by amino acids P100 to K330 of human IgG1. After incubation, the binding of the VISTA dextramer to the T cells was measured by flow cytometry. IC50 values were calculated via nonlinear regression in Prism software (GraphPad). The results, which are shown in FIG. 3 and Table 1, indicate that PSGL-1 and P-selectin inhibit binding of VISTA to the activated CD4+ T cells in a dose dependent manner at acidic pH.

In patent publication US20220298258A1 (Bristol-Myers Squibb, published 2022) one finds IC50 data, which are given here for two molecules.

In general, IC50 refers to the concentration needed to halve the response being measured. High values mean weaker potency in that assay, low ones greater potency in that assay. “recombinant human P-selectin (R&D Systems) (from UniProt P16109 42-771) (receptor)” showed an IC50 in experiment [1] of 101 nM.

B1: recombinant human PSGL-1-Fc fusion protein (R&D Systems Catalog No. 3345-PS) (Fc fusion)
chain: QATEYEYLDYDFLPETEPPEMLRNSTDTTPLTGPGTPESTTVEPAARRSTGLDAGGAVTELTTELANMGNLSTDSAAMEIQTTQPAATEAQTTPLAATEAQTTRLTATEAQTTPLAATEAQTTPPAATEAQTTQPTGLEAQTTAPAAMEAQTTAPAAMEAQTTPPAAMEAQTTQTTAMEAQTTAPEATEAQTTQPTATEAQTTPLAAMEALSTEPSATEALSMEPTTKRGLFIPFSVSSVTHKGIPMAASNLSVIEGRMD
notes: Bought reagent; also called hPSGL-1-Fc; humPSGL-1-Fc; not shown: human IgG1, amino acids P100 to K330
The molecule B1 showed an IC50 in experiment [2] of 20.5 nM.
